Level in Mediator relative to wild-type MED26 data for one substance are collected here from publication PMC7044329.

For the assay, the target named is transcriptional activation domain of ATF6α. Nature of the assay: affinity purification with mass spectrometry; Mediator enriched from wild-type and MED26 hypomorphic HEK293T cells by binding to the ATF6α transcriptional activation domain (glutathione affinity); semi-quantitative MudPIT.

As to “mutant MED26 that lacks the NTD (from UniProt O95402 1-600) (natural protein)”, the level in Mediator relative to wild-type MED26 lay within 30 to 50%.
